How the values were obtained:
[1] = target: AfTrax (Archaeoglobus fulgidus Trax homologue, AF2260), wild type (Archaeoglobus fulgidus); assay: crystal structure
[2] = target: AfTrax (Archaeoglobus fulgidus Trax homologue, AF2260), wild type (Archaeoglobus fulgidus); assay: SEC
[3] = target: AfTrax D114A catalytic mutant (Archaeoglobus fulgidus); assay: crystal structure

stoichiometry N [1]	stoichiometry N [2]	stoichiometry N [3]	Substance
8	8		AfTrax (Archaeoglobus fulgidus Trax homologue, AF2260), wild type (natural protein)
		8	AfTrax D114A catalytic mutant (natural protein)

From article PMC3597040
